Source: patent publication US20250027073A1

Molecular target: Flu-m158-66-TCR, on Jurkat T cells

## Influenza M158-66 ([…]) presented by HLA-A0201, single-chain trimer of pMHC displayed on the lentiviral surface (from UniProt P61769 21-119) (peptide-MHC)
  percent of T cells GFP+: > 87%
